This is an account of results in article PMC10400924 (The Journal of Biological Chemistry, 2023).

Where two headings read alike, the source gives them in different places.

Experiment [1] deals with interferon γ receptor 1 protein (immobilised for SPR) (UniProt P15260). The experiment is described as follows: SPR.
For experiment [2] the target is unchanged. Put plainly: SPR. The source holds these as a separate data set. (SPR reads the build-up and loss of mass on a sensor chip optically.)
In experiment [3] the target is T1, IFNγR1 (Homo sapiens, UniProt P15260). The experiment is described as follows: biochemical.
Target sequence in this assay (P15260 18-489 limits assumed): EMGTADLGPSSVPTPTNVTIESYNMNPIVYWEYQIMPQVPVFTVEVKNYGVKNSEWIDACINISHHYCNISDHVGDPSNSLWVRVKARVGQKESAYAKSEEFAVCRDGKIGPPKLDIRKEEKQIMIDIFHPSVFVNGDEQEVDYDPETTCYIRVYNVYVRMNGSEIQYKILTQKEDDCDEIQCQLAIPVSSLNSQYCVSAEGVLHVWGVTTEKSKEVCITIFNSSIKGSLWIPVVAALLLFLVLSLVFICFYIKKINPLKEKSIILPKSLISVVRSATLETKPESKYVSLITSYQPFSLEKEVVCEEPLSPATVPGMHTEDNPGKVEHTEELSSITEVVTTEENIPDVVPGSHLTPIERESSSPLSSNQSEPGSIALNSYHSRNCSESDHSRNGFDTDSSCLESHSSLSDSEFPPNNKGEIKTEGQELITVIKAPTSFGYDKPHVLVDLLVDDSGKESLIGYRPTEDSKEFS
The target in experiment [4] is T1, IFNγR1. As to conditions: 10 μM CF, 3 h, intact NK92 cells.
Target sequence in this assay (P15260 18-489): as the sequence (P15260 18-489 limits assumed) above

Chain of interferon γ (P01579 24-161): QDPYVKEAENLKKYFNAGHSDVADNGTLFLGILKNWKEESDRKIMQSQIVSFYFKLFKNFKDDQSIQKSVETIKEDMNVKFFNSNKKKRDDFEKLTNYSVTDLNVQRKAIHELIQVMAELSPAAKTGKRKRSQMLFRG
Chain of interferon γ receptor 1 protein (immobilised for SPR) (P15260 18-489): as the sequence (P15260 18-489 limits assumed) above

For “interferon γ (from UniProt P01579 24-161) (ligand)”, the Kd – broadly, the constant that tells how readily two partners part at equilibrium – in experiment [1] worked out at 2.8 nM; in experiment [2] it was 4.5 nM.
For the compound `COc1cc(/C=C/C(=O)O[C@H]2CC[C@]34C[C@]35CC[C@]3(C)[C@@H]([C@H](C)CCC=C(C)C)CC[C@@]3(C)[C@@H]5CC[C@H]4C2(C)C)ccc1O` [CF, Cycloartenyl ferulate], in experiment [3], the affinity, expressed as Kd, was 500 nM. Further, the “thermal stability (CETSA)” value in experiment [4] was “When treated with CF, the thermal stability of IFNγR1 was significantly increased”.
